Data taken from patent publication EP0826043B1.

Assays:
Assay in all cases: cell-based or functional assay
[1] = biological target: CD3 (TCR/CD3 complex) on Jurkat cells
[2] = biological target: CD28 ligand B7-2 on mouse lymph node accessory cells (mouse) (UniProt P42082)
[3] = biological target: CD28 ligand B7-1 on mouse lymph node accessory cells (mouse) (UniProt Q00609)
[4] = biological target: Fas cell surface receptor (human) (UniProt P25445)
Sequence of UniProt P25445 (P25445 26-335): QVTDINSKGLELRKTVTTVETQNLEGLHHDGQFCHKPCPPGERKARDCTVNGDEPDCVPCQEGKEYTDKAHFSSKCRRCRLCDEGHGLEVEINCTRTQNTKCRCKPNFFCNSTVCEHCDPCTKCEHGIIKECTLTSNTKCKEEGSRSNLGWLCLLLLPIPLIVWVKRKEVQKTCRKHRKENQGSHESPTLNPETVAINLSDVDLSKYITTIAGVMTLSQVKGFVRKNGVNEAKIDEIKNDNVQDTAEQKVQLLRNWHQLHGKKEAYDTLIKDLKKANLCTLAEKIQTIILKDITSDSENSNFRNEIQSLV

Sequence of UniProt P42082 (P42082 24-309): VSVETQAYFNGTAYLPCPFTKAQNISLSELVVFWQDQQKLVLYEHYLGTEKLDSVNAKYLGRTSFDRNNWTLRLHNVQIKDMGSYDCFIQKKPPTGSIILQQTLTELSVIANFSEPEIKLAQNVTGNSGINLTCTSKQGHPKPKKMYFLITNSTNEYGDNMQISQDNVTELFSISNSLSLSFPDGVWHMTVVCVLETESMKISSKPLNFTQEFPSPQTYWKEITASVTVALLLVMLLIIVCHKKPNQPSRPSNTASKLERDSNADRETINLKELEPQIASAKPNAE
Sequence of UniProt Q00609 (Q00609 38-306): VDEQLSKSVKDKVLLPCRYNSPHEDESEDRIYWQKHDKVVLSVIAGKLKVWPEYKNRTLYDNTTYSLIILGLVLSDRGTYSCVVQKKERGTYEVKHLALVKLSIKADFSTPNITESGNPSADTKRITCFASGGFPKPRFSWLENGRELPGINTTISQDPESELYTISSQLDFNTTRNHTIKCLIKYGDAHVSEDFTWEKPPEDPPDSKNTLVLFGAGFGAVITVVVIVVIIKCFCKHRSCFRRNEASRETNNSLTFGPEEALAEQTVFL

Q: How did the cell death of Neo Jurkat clones treated with plate bound anti-CD3 (propidium iodide exclusion) [1] turn out when anti-CD3 (OKT3) (antibody) was run?
A: 30 to 60%

Q: Which results are given for CTLA4Ig (from Repligen) (Fc fusion)?
A: viability of activated Thy-1 positive T cells at 72 hrs [2]: 20%; viability of activated Thy-1 positive T cells at 72 hrs [3]: 20%

Q: For “CH-11 anti-Fas monoclonal antibody (Panvera)”, which viability (propidium iodide exclusion) of control (Neo) Jurkat transfectants treated with Fas antibody at 10 ng/ml [4] is on record?
A: < 10%
